System: MS2 coat protein
Assay: apparent KD of MS2 coat protein; designed switch direction (-1 OFF switch, 1 ON switch): 1; higher = weaker reporter binding
In short: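 Designed RNA switches were transcribed on Illumina chips by stalled E. coli RNA polymerase and titrated with SNAP-549-labelled MS2 coat protein from 0.7 or 1.5 nM, doubling to 3 µM. Step length ran from 0.8–1.5 h at the lowest concentration to 10–20 min at the highest. The apparent KD is the median over clusters for each design, from curve-fitted normalised cluster fluorescence.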

[1] = input ligand: microRNA oligo, concentration not stated
[2] = Eterna round: R95, input ligand: FMN 200 uM
[3] = Eterna round: R95, input ligand: microRNA oligo, concentration not stated
[4] = Eterna round: R95, input ligand: none

Row | Sequence | apparent KD of MS2 coat protein (input ligand: FMN 200 uM) [nM] | apparent KD of MS2 coat protein [1] [nM] | apparent KD of MS2 coat protein (input ligand: none) [nM] | apparent KD of MS2 coat protein [2] [nM] | apparent KD of MS2 coat protein [3] [nM] | apparent KD of MS2 coat protein [4] [nM]
1 | AGUAUACAUGAGGAUCACCCAUGUCAGUAACUGACAGGAUAUGCGUUGCAUCACUGUAAUGCAGAAGGGUCUUGUA [Same State 1 - Mod of JMF's solution 1] (Eterna round: R96, puzzle: Same State 1) | 138 | 324 | 379 |  |  | 
2 | AGUCCAGCCUAAGCUGGACAAAAGCAUGUACAUGAGGAUCACCCAUGUCAUGUACAAGCUUUUUGCUCGUCUUAAAA [Mat - hsa-mir-208a - Mod of JL - D4] (puzzle: Sensor for hsa-mir-208a) |  |  |  | 684 | 16.1 | 550
3 | AAAAAACAUGAGGAUCACCCAUGUCAAAAGACAUGAGGAUAUGUACAGACUUCGGUCUGUACAGAAGGCAUGUAAA [SS1 - 1015] (Eterna round: R96, puzzle: Same State 1) | 28.9 | 241 | 319 |  |  | 
4 | UGGCUGAGUCGAGGAUAUGAUCUUCAUAUAUAUACAUGAGGAUCACCCAUGUAUAAUUACAUGGAUCAGAAGGCGACUCAGCCA [SSNG2/13-A1] (Eterna round: R96, puzzle: Same State NG 2) |  | 22.9 |  |  |  | 
5 | CUCCCACGUGCACAGGAUAUGCCGGGAUGCACAUGAGGAUCACCCAUGUAAUCCUGAAAAUAAAAGCAGAAGGGUGAUCAUGGGU [Teestege] (puzzle: Same State 2) |  |  |  | 36.1 | 11.6 | 10.2
6 | AUAAUAAUAAGUGAGGAUAUGUUGAUAAAGACAUGAGGAUCACCCAUGUGAAAUAAAAUAAUAAUACAGAAGGCACAAUAAUAAA [JMF's solution 2] (puzzle: Same State 2) |  |  |  | 25.6 | 38.7 | 27.9
7 | AGUCCAGCCUGAGCUGGACAAAAGCAUGUACAUGAGGAUCACCCAUGUCAUGUAUAAGCUUUUUGCUCGUUUUAAUA [Zipper 49 - 16] (puzzle: Sensor for hsa-mir-208a) |  |  |  | 19.9 | 10.7 | 19
8 | GUUAGGAAUCUAGCUGACAUGAGGAUCACCCAUGUUAGUGGGAAGGAUAUGGUACAGAAACUGUACCAGAAGGUCUUACUGUCU [MOD Omei's SS(NG) 3 AV9] (Eterna round: R96, puzzle: Same State NG 3) | 23.8 | 21.4 | 25.9 |  |  | 
9 | GGAGCCGGCCUAGGAUAUUUCAUAAACAAACAUGAGGAUCACCCAUGUAGGCCAGAAGGCCUUGGGAAGAAGGAGGUCGGCUCC [Loop Effect - C27] (Eterna round: R96, puzzle: Same State NG 2) | 22.1 | 32.2 | 45.2 |  |  | 
10 | ACAUGAGACCAAGGAUAUUUUGUACCUACAUGUGACAUGAGGAUCACCCAUGUGGUAAGUAUGAGAAAGAAGGUGGAGAUAUGU [Equivalence 22 - Jieux - Same State NG 2] (Eterna round: R96, puzzle: Same State NG 2) | 22.8 | 22.5 | 37 |  |  | 
11 | ACAUUUAGCUCUUGCACAUGAGGAUCACCCAUGUUCAGUUCACAGGAUAUCUAGUCAAACGGAUCGGAGAAGGGUGGCAGGAGC [Erquzaa] (Eterna round: R96, puzzle: Same State NG 3) | 86.3 | 185 | 294 |  |  | 
12 | AGUCCAGCCUGAGCUGGACAAUAGCAUGUACAUGAGGAUCACCCAUGUCAUGUACAAGCUUUUUGCUCGUCUUAAAA [JL zipper 48] (Eterna round: R96, puzzle: Sensor for hsa-mir-208a) | 163 | 12.4 | 159 |  |  | 
13 | UUAAAACAUGAGGAUCACCCAUGUAAUAUAAUGGGAGGAUAUCUGAUUUAAUUAAAUUUAAGAGAAGGCCUAAAUU [Mat - Same State 1 - Mod of Eli - D55] (puzzle: Same State 1) |  |  |  | 28.9 | 128 | 169
14 | GGUCCAGCCUGAGCUGGACAAAAGCAUGUACAUGAGGAUCACCCAUGUUCAUGUACAAGCUUUUUGCUCGUCUUAAC [salish99_208a_r3_038] (puzzle: Sensor for hsa-mir-208a) |  |  |  | 530 | 16.9 | 648
15 | AACAUGUGGUGUCACAUGAGGAUCACCCAUGUGGUAAAAGCUGAGGAUAUAAAGAGAAACAUGAAUUAGAAGGUAGGAUCACAA [AK SSNG3-V2-19] (Eterna round: R96, puzzle: Same State NG 3) | 177 | 138 | 127 |  |  | 
16 | UUAAUAAUGUUAGGAUAUACAUGAGGAAUCCUCGUAGAAGGAACAUGACAUGAGGAUCACCCAUGUAGCGCUCCGUAGAGCGCA [Mat - Same State NG 1 - JL mod - D45] (Eterna round: R96, puzzle: Same State NG 1) | 1600 | 53.2 | 164 |  |  | 
17 | CACAUGAGGAUCACCCAUGUGAGGCGGCAAUAAAACCGCGCACAGGAUAUAGCGCUAAGAAUGCGCUAGAAGGGUGAUUAGAAC [Esenla] (Eterna round: R96, puzzle: Same State NG 3) | 746 | 10.4 | 39.2 |  |  | 
18 | GUAGAUAUAGAGGAGGAUAUUCAAUGAGGAACAUGAGGAUCACCCAUGUAAGAGAGAGAUGAUGAGAAGAAGGCUUAGAGGGAUG [Altered State 2-3 - Jieux - Same State 2] (puzzle: Same State 2) |  |  |  | 46.5 | 84.6 | 62
19 | ACGUGGACGAAAGUCCACGAAUAAGACGAACAUGAGGAUCACCCAUGUGAGGCGAGCUUUUUGUUCGUCUUAUAAAA [Mat - Sensor - Mod - D116] (Eterna round: R96, puzzle: Sensor for hsa-mir-208a) | 73.1 | 32.1 | 22.6 |  |  | 
20 | CCAUGGUAACAUGAGGAUCACCCAUGUACAAGCUUUUUGCUCGUUUUAUUUAUUAUUAUUAUUAUUAUUAUUAUUAA [Nishu_Seq1] (puzzle: Sensor for hsa-mir-208a version 2) |  |  |  | 33.5 | 105 | 86.6
21 | CUAUCUACAGGUUGCAGUGCUCGUCUUAUACAUGAGGAUCACCCAUGUUAUAGCCCGGUGCUUGCGCUGGGCUGAUU [JL ViennaUCT Tearor mod 2] (Eterna round: R96, puzzle: Sensor for hsa-mir-208a) | 40.9 | 16.4 | 41.1 |  |  | 
22 | UCUGAUGCCGUAGGAUAUCUAGGAUAUGGACGAGGAUCACCCGAGCAGCAUCAGCGCACCAGAGGAGAGAAGGACGCUUUGGAA [pwkr ssNG2 2F5 2FMN.21] (Eterna round: R96, puzzle: Same State NG 2) | 438 | 274 | 1190 |  |  | 
23 | GUCAGCGAUUGAGGAUAUCACGUCGAUUAGACGUGAGAAGGCGAUCAUAACAUGAGGAUCACCCAUGUAUUACAUGAAGCUGAC [SSNG1/5-A2] (Eterna round: R96, puzzle: Same State NG 1) | 19.6 | 17.5 | 27.1 |  |  | 

Source: the supplement of paper PMC9170038
